The Human Domainome abundance scans (Beltran et al. 2025)

B1: POU domain, class 3, transcription factor 3, residues 320 to 388; numbered along this chain, P20264 (parent)
chain: DDLEQFAKQFKQRRIKLGFTQADVGLALGTLYGNVFSQTTICRFEALQLSFKNMCKLKPLLNKWLEEAD

Variants of: B1
Assay: abundance fitness (aPCA) (normalised: wild type 0, dead -1); higher = more abundant; growth selection in yeast, the domain comes from the species named
Settings: Homo sapiens

Abundance fitness, by site and new letter:
K63: H -0.189 | G -0.074 | F -0.149 | W -0.658 | S -0.317 | P -0.77 | E -0.519 | A -0.129 | M -0.435 | D -0.349 | N -0.261 | V -0.743 | C -0.147 | Y -0.53 | L -0.493 | I -0.697
E67: K -0.029 | T -0.134 | R -0.015 | G -0.084 | S 0.196 | L 0.333 | V -0.321 | Q -0.227 | A -0.032
P59: E -0.353 | L -0.378 | Q -0.333 | W -0.986 | R -0.389 | S -0.398 | T -0.459 | G -0.166 | V -0.377 | M -0.279 | K -0.247 | C -0.064
L57: P 0.029 | H -0.333 | R -0.715 | S -0.572 | W -0.401 | M -0.279 | A -0.602 | K -0.645 | T -0.698 | V -0.535 | G -0.78 | E -1.16
L65: W -0.297 | K -0.211 | S -0.58 | G -0.935 | T -0.732 | Q -0.73 | I -0.513 | F -0.633 | C -0.846 | R -0.674 | M -0.185
M54: R -0.909 | F -0.96 | P -1.05 | Q -0.7 | C -0.636 | T -0.733 | I -0.911 | S -0.483 | W -0.801 | L -0.428
L60: K -0.334 | S -0.563 | W -0.227 | V -0.309 | A -0.51 | R -0.491
S50: V -1.04 | K -0.302 | G -0.561 | E -0.18 | N -0.922 | L -0.833 | F -0.711 | C -0.786 | Q 0.161 | P 0.034 | A -0.751 | D -0.074
K58: L -0.875 | C 0.152 | V -0.398 | A -0.337 | R 0.031 | S -0.796 | G -0.852 | I -0.416 | T -0.892
N53: A -0.035 | F -0.513 | G -0.148 | W -0.102 | E 0.049 | T 0.051 | L -0.148 | I -0.167 | P -0.613 | S -0.257 | Y -0.357 | H -0.09 | M 0.114 | D 0.012 | C -0.255 | V -0.306 | R -0.037 | Q -0.044
K52: N -0.093
Q48: S -0.205 | G -0.264 | T -0.187 | E -0.088 | R -0.416 | A -0.612 | M -0.599 | K -0.177 | W -0.453 | L -0.375 | I -0.835
E66: F -0.127 | H 0.082 | G -0.889 | R -0.146 | N 0.122 | T -0.132 | S -0.502 | K -0.123 | V -0.225 | L -0.428 | C -0.046 | I 0.075 | M 0.002 | D 0.402 | Y -0.635
N62: A 0.001 | V 0.148 | G 0.052 | W -0.739 | L -0.126 | H 0.11 | R -0.063 | K -0.12 | Q -0.028 | S 0.03 | D 0.024
L61: S -0.977 | T -0.513 | C -0.796 | E -0.99 | R -0.97 | M -0.522 | G -0.891 | I -0.696 | Q -0.811 | W -0.881 | V -0.513 | P -0.928 | K -0.66 | A -0.803
